From patent US20140105889A1 (published 2014)
Positions count from the first letter of the chain named. In names and notes the source's numbering stands.

T1: human FcγRIIb (human, UniProt P31994 43-217, limits assumed)
T1 construct: also called FcγIIB; hFcgRIIb
T1 sequence: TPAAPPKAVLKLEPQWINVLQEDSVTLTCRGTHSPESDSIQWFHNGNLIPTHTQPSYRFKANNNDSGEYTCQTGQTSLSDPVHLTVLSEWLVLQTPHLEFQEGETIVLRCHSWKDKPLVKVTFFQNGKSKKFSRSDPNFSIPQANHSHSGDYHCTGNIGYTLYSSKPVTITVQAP

T2: human FcγRIIa(R) (human, UniProt P12318 36-217)
T2 construct: Analyte in solution on Biacore; also called FcγRIIa type R; FcgRIIaR
T2 chain: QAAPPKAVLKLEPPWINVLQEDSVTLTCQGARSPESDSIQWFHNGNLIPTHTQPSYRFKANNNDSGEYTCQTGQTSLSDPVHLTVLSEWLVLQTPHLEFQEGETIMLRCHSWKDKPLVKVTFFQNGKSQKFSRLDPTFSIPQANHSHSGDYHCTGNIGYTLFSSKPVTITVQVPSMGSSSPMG

T3: human FcγRIIa(H) (human, UniProt P12318 36-217)
T3 construct: Analyte in solution on Biacore; also called FcγRIIa type H; FcgRIIaH
T3 sequence: T2 chain with R133H

T4: human FcγRIIb (human, UniProt P31994 43-217, limits assumed)
T4 construct: Analyte in solution on Biacore; also called FcgRIIb; hFcgRIIb
T4 sequence: T1 sequence

T5: human FcγRIIb (human, UniProt P31994 43-217)
T5 construct: also called FcγIIB
T5 sequence: T1 sequence

B1: IL6R-BP199/IL6R-L (antibody, human IgG1)
heavy: QVQLQESGPGLVKPSETLSLTCAVSGHSISHDHAWSWVRQPPGEGLEWIGFISYSGITNYNPSLQGRVTISRDNSKNTLYLQMNSLRAEDTAVYYCARSLARTTAMDYWGEGTLVTVSSASTKGPSVFPLAPSSKSTSGGTAALGCLVKDYFPEPVTVSWNSGALTSGVHTFPAVLQSSGLYSLSSVVTVPSSSLGTQTYICNVNHKPSNTKVDKKVEPKSCDKTHTCPPCPAPDLLGGDSVFLFPPKPKDTLMISRTPEVTCVVVDVSHEDPEVKFNWYVDGVEVHNAKTKPREEQYNSTYRVVSVLTVLHQDWLNGKEYKCKVSNDALPRPIEKTISKAKGQPREPQVYTLPPSRDELTKNQVSLTCLVKGFYPSDIAVEWESNGQPENNYKTTPPVLDSDGSFFLYSKLTVDKSRWQQGNVFSCSVMHEALHNHYTQESLSLSP
light: DIQMTQSPSSLSASVGDRVTITCRASQDISSYLNWYQQKPGKAPKLLIYYTSRLHSGVPSRFSGSGSGTDFTFTISSLQPEDIATYYCQQGNTLPYTFGQGTKVEIK
notes: Anti-human IL-6 receptor human IgG1 variant; uncertain; copies: 2 + 2
B2: IL6R-BP087/IL6R-L (antibody, human IgG1)
heavy: B1 heavy with D235E, L236Y, D328K, R332K
light: B1 light
notes: copies: 2 + 2
B3: GpH7-B3 variant P329S / GpL16-k0 (antibody, human IgG1)
heavy: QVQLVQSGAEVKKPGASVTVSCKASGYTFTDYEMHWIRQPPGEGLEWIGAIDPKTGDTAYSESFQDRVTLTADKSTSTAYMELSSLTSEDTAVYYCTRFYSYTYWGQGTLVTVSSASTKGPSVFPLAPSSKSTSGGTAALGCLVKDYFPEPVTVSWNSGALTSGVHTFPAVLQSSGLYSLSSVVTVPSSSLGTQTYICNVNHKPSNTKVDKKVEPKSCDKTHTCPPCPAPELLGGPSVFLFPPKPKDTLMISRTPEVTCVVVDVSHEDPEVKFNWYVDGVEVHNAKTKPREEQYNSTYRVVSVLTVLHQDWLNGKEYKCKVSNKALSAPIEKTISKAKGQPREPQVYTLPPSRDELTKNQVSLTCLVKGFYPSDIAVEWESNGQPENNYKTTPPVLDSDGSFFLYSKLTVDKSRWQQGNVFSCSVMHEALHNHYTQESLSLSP
light: DIVMTQSPLSLPVTPGEPASISCQASESLVHSNRNTYLHWYLQKPGQSPQLLIYKVSNRFSGVPDRFSGSGSGTDFTLKISRVEAEDVGVYYCSQNTHVPPTFGQGTKVEIE
notes: Anti-glypican-3 IgG1; constant region B3 = G1d with K439E
B4: GpH7-B3 variant P331G / GpL16-k0 (antibody, human IgG1)
heavy: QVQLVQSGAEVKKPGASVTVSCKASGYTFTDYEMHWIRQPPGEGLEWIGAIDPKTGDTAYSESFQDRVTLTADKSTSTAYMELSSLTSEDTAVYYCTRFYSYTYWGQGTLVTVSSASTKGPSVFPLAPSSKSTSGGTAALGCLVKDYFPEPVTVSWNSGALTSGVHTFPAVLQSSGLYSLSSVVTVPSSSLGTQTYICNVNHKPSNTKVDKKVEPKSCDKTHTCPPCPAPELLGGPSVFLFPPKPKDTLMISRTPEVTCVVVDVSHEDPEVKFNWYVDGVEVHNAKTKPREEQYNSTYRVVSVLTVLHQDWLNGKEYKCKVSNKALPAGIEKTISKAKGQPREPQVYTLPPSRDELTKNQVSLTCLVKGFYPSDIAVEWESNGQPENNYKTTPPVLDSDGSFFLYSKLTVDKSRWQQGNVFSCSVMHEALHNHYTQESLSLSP
light: B3 light
notes: as for B3
B5: GpH7-B3 variant A330P / GpL16-k0 (antibody, human IgG1)
heavy: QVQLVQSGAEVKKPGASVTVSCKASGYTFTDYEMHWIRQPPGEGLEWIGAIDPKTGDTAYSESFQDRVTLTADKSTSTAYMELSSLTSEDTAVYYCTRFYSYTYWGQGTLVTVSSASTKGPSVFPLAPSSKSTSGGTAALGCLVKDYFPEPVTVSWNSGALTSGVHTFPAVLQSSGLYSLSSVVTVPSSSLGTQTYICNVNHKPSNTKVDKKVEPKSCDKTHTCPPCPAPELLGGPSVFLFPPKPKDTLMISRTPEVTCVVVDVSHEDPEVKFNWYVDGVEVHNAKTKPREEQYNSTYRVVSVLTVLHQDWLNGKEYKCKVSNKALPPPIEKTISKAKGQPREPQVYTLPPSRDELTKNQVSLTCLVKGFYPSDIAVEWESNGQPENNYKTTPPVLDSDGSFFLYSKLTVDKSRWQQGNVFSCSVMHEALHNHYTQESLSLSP
light: B3 light
notes: as for B3
B6: GpH7-B3 variant P329D / GpL16-k0 (antibody, human IgG1)
heavy: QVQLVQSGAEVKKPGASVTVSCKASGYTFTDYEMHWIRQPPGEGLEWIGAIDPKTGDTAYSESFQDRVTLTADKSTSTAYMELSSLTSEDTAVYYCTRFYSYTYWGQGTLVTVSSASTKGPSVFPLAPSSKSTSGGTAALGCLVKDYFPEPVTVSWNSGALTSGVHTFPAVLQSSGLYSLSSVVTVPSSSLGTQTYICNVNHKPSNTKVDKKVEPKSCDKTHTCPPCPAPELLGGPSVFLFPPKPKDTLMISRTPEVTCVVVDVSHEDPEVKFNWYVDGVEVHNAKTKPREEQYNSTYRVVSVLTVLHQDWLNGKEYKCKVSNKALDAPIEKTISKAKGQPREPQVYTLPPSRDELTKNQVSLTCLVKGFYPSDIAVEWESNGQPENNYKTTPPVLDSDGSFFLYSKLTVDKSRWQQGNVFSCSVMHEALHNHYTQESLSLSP
light: B3 light
notes: as for B3
B7: GpH7-B3 variant I332R / GpL16-k0 (antibody, human IgG1)
heavy: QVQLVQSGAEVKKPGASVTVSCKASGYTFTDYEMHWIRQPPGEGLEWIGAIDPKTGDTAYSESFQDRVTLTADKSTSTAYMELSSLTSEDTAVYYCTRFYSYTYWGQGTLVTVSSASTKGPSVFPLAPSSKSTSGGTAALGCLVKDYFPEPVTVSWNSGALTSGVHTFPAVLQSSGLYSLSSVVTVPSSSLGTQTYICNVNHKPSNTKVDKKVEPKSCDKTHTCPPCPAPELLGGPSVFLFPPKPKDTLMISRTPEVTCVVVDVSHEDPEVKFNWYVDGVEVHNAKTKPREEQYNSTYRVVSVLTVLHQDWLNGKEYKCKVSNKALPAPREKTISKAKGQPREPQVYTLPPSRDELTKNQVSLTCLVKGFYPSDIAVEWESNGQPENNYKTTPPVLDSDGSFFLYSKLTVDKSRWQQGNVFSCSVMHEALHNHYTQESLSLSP
light: B3 light
notes: as for B3
B8: GpH7-B3 variant I332P / GpL16-k0 (antibody, human IgG1)
heavy: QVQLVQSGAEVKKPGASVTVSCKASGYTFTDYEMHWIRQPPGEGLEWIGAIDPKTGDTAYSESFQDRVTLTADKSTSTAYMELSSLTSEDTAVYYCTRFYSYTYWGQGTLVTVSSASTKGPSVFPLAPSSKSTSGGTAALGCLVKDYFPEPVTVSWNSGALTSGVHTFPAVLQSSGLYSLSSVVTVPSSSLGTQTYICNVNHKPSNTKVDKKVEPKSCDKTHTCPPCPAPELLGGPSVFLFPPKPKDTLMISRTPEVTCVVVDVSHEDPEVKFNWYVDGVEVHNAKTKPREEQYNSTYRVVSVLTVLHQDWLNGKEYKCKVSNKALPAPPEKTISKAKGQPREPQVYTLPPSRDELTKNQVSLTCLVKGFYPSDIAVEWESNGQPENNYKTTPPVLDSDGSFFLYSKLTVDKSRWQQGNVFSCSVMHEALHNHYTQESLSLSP
light: B3 light
notes: as for B3
B9: GpH7-B3 variant I332K / GpL16-k0 (antibody, human IgG1)
heavy: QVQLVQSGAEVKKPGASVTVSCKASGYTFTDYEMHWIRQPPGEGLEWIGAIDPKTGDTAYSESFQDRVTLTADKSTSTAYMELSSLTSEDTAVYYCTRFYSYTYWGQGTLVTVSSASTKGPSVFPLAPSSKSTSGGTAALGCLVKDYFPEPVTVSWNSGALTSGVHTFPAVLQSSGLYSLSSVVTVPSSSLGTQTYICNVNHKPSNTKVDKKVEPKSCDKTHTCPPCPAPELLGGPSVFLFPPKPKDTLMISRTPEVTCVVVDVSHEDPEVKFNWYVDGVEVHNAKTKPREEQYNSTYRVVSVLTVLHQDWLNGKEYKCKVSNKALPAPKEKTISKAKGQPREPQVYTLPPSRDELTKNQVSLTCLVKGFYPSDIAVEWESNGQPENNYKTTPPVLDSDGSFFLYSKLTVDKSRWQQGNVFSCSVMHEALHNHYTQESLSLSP
light: B3 light
notes: as for B3
B10: GpH7-B3 variant A330S / GpL16-k0 (antibody, human IgG1)
heavy: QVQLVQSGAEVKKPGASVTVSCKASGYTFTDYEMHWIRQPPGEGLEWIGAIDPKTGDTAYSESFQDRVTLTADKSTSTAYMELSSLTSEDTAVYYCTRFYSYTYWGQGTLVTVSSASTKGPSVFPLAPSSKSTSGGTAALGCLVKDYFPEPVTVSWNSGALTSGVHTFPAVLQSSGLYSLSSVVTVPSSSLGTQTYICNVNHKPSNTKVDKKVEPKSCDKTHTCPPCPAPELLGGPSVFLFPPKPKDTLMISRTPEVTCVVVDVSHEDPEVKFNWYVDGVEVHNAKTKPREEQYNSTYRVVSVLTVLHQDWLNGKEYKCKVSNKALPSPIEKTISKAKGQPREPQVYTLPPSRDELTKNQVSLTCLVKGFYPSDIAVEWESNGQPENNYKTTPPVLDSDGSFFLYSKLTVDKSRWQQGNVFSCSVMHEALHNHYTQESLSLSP
light: B3 light
notes: as for B3
B11: antibody containing VH3-IgG1-F890 for the heavy chain and L(WT)-CK for the light chain (antibody)
heavy: B1 heavy with D235E, D240P, M254Y, D328K, R332A, N436Y, Y438V, E441K
light: not shown
B12: antibody containing VH3-IgG1-F939 for the heavy chain and L(WT)-CK for the light chain (antibody)
heavy: B1 heavy with D235E, L237R, D240P, S241K, M254Y, D328K, R332A, N436Y, Y438V, E441K
light: not shown
B13: antibody containing VH3-IgG1-F1327 for the heavy chain and L(WT)-CK for the light chain (antibody)
heavy: QVQLQESGPGLVKPSETLSLTCAVSGHSISHDHAWSWVRQPPGEGLEWIGFISYSGITNYNPSLQGRVTISRDNSKNTLYLQMNSLRAEDTAVYYCARSLARTTAMDYWGEGTLVTVSSASTKGPSVFPLAPSSKSTSGGTAALGCLVKDYFPEPVTVSWNSGALTSGVHTFPAVLQSSGLYSLSSVVTVPSSSLGTQTYICNVNHKPSNTKVDKKVEPKSCDKTHTCPPCPAPEAAGGPSVFLFPPKPKDVLYISRTPEVTCVVVDVSHEDPEVKFNWYVDGVEVHNAKTKPREEQYASTYRVVSVLQPLHADWLNGKEYKCKVSNKALPAPIEKTISKAKGQPREPQVYTLPPSRDELTKNQVSLTCLVKGFYPSDIAVEWESNGQPENNYKTTPPVLDSDGSFFLYSKLTVDKSRWQQGNVFSCSVMHEALHYHVTQKSLSLSP
light: not shown
B14: antibody containing VH3-IgG1-F1318 for the heavy chain and L(WT)-CK for the light chain (antibody)
heavy: B13 heavy with A236L, A237L, S241K, V252T, A299N, Q309T, P310V, A313Q, P331R
light: not shown
B15: antibody containing VH3-IgG1-F947 for the heavy chain and L(WT)-CK for the light chain (antibody)
heavy: B13 heavy with A236L, A237L, A299N
light: not shown
B16: antibody containing VH3-IgG1-F1009 for the heavy chain and L(WT)-CK for the light chain (antibody)
heavy: B13 heavy with A236L, A237R, S241K, A299N
light: not shown
B17: antibody containing VH3-IgG1-F1325 for the heavy chain and L(WT)-CK for the light chain (antibody)
heavy: B13 heavy with V252T, Q309T, P310V, A313Q
light: not shown
B18: antibody containing VH3-IgG1-F938 for the heavy chain and L(WT)-CK for the light chain (antibody)
heavy: B13 heavy with A236L, A237K, S241K, V252T, A299N, Q309T, P310V, A313Q
light: not shown
B19: antibody containing VH3-IgG1-F1317 for the heavy chain and L(WT)-CK for the light chain (antibody)
heavy: B13 heavy with A236L, A237L, S241K, V252T, A299N, Q309T, P310V, A313Q, P331K
light: not shown
B20: antibody containing VH3-IgG1-F1315 for the heavy chain and L(WT)-CK for the light chain (antibody)
heavy: B13 heavy with A236L, A237L, G239K, S241K, V252T, A299N, Q309T, P310V, A313Q
light: not shown
B21: antibody containing VH3-IgG1-F1333 for the heavy chain and L(WT)-CK for the light chain (antibody)
heavy: B13 heavy with A236L, A237R, G238R, S241K, V252T, A299N, Q309T, P310V, A313Q
light: not shown
B22: antibody containing VH3-IgG1-F1316 for the heavy chain and L(WT)-CK for the light chain (antibody)
heavy: B13 heavy with A236L, A237L, G239R, S241K, V252T, A299N, Q309T, P310V, A313Q
light: not shown

biological target: T6, human FcγRIIIa type V (allotype V158) (human, UniProt P08637 17-208, limits assumed); test: SPR (Biacore), antibody captured on the chip, FcγR as analyte
T6 construct: the assay used allotype V158; also called FcγRIIIaV; FcγRIIIa(V)
T6 sequence (P08637 other isoform, or with tags, fused parts or gaps limits assumed): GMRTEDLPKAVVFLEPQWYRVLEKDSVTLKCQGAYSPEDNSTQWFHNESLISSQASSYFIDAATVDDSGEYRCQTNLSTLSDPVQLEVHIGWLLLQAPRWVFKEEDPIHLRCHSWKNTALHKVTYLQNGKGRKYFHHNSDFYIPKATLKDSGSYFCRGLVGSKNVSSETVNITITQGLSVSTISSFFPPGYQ

Row | Kd | Binder
1 | 61 µM | B1

biological target: T1, human FcγRIIb; test: ratio of this variant's SPR KD for FcγRIIaH to its KD for FcγRIIb
Text: (§1) Furthermore, KD(IIaR)/KD(IIb) and KD(IIaH)/KD(IIb) in the table respectively represent the value obtained by dividing the KD value of each variant for FcγRIIaR by the KD value of each variant for FcγRIIb, and the value obtained by dividing the KD value of each variant for FcγRIIaH by the KD value of each variant for FcγRIIb.

Row | KD (IIaH)/KD (IIb) | Binder
2 | 34.7 | B2

biological target: T7, human FcγRIa (human, UniProt P12314 16-292, limits assumed); test: SPR (Biacore), antibody captured on chip, FcγR as analyte, HBS-EP+, 25°C;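 further: FcγR binding response divided by the amount of captured antibody, then expressed relative to the reference antibody ×100, with antibodies captured via immobilized Protein A, A/G, L or antigen peptides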
T7 construct: Analyte in solution on Biacore; also called FcgRIa; hFcgRIa
T7 sequence (P12314 16-292 limits assumed): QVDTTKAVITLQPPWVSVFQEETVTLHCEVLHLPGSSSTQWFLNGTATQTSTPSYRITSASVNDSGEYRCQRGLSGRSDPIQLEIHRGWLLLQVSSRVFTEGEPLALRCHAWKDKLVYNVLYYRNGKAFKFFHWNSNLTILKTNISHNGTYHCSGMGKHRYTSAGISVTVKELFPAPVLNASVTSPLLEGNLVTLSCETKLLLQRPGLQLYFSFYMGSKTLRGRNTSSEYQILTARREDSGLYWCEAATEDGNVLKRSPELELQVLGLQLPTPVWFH
Experimental: (§2) Interaction between each modified antibody and Fcγ receptor prepared in the manner described above was analyzed using the Biacore T100 (GE Healthcare), Biacore T200 (GE Healthcare), Biacore A100 or Biacore 4000. HBS-EP+ (GE Healthcare) was used for the running buffer, and measurements were carried out at 25° C. The chips used were chips in which antigen peptides, Protein A (Thermo Scientific), Protein A/G (Thermo Scientific) or Protein L (ACTIGEN or BioVision) were immobilized on the Series S Sensor Chip CM5 (GE Healthcare) or Series S Sensor Chip CM4 (GE Healthcare) by amine coupling, or chips in which preliminarily biotinylated antigen peptides were allowed to interact and then immobilized on the Series S Sensor Chip SA (certified) (GE Healthcare). The target antibodies were captured on these sensor chips, Fcγ receptor diluted with the running buffer was allowed to interact, followed by measurement of the amount of bound antibody. The amounts bound were compared between antibodies. However, since the amount of Fcγ receptor bound depends on the amount of captured antibody, the values used for comparison were first corrected by dividing the amount of Fcγ receptor bound by the captured amount of each antibody. Through reaction with 10 mM glycine-HCl at pH 1.5, the sensor chips were regenerated by washing off antibody captured on the sensor chips and used repeatedly.
(§3) Binding strength was evaluated according to the following method based on the results of analyzing the interaction with each FcγR. […] That value was then further multiplied by 100, and the resulting value was used as an indicator of relative binding activity to each FcγR.

Row | relative binding activity (% of GpH7-B3/GpL16-k0) | Binder
3 | 60% | B3
4 | 88% | B4
5 | 87% | B5
6 | 23% | B6
7 | 95% | B7
8 | 100% | B8
9 | 77% | B9
10 | 58% | B10

Biological target: T2, human FcγRIIa(R)
Test: as above
Experimental: as §2, §3

Row | relative binding activity (% of GpH7-B3/GpL16-k0) | Binder
11 | 0% | B3
12 | 13% | B4
13 | 42% | B5
14 | -1% | B6
15 | 28% | B7
16 | 34% | B8
17 | 12% | B9
18 | 0% | B10

biological target: T3, human FcγRIIa(H); test: as above
Experimental: as §2, §3

Row | relative binding activity (% of GpH7-B3/GpL16-k0) | Binder
19 | 1% | B3
20 | 25% | B5
21 | -1% | B6
22 | 70% | B7
23 | 26% | B8
24 | 59% | B9
25 | 0% | B10

biological target: T4, human FcγRIIb; test: as above
Experimental: as §2, §3

Row | relative binding activity (% of GpH7-B3/GpL16-k0) | Binder
26 | -1% | B3
27 | 39% | B5
28 | -2% | B6
29 | 23% | B7
30 | 41% | B8
31 | 27% | B9
32 | -3% | B10

biological target: T8, human FcγRIIIa(F) (human, UniProt P08637 17-208, limits assumed); test: as above
T8 construct: also called FcgRIIIaF; hFcgRIIIa(F)
T8 sequence (P08637 other isoform, or with tags, fused parts or gaps limits assumed): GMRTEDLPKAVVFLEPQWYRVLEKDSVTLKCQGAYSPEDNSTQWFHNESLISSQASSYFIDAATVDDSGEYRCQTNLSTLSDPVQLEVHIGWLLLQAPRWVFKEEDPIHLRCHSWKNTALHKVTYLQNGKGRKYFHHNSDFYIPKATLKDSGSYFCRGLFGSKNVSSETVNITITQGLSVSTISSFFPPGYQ
Experimental: as §2, §3

Row | relative binding activity (% of GpH7-B3/GpL16-k0) | Binder
33 | 1% | B3
34 | 56% | B5
35 | -1% | B6
36 | 61% | B7
37 | 14% | B8
38 | 0% | B10

biological target: T5, human FcγRIIb; test: SPR (Biacore); KD of parent IL6R-B3/IL6R-L for FcγRIIb divided by KD of the variant for FcγRIIb
Text: as §1

Row | KD(IIb) of the parent polypeptide/KD(IIb) of the altered polypeptide | Binder
39 | 6.3 | B1

biological target: T9, human FcγRIIIa(F) (human, UniProt P08637 17-208, limits assumed); test: SPR (Biacore), antibody captured on Protein L, human FcgR as analyte, pH 7.4, 25 C; amount normalised to captured antibody
T9 construct: also called hFcgRIIIa(F); allotype F158
Experimental: Binding activity between the antibodies and human FcγRIa, FcγRIIa(H), FcγRIIa(R), FcγRIIb and FcγRIIIa(F) (hereinafter referred to as human FcγRs) was evaluated using the Biacore T100 or T200 (GE Healthcare). The antibodies being tested were captured by Protein L (ACTIGEN) that was immobilized in suitable amounts on the CM4 Sensor Chip (GE Healthcare) by amine coupling. Next, the diluted human FcγRs and a running buffer used as a blank were injected to allow interaction with the antibodies captured on the sensor chip. A buffer consisting of 20 mmol/L ACES, 150 mmol/L NaCl and 0.05% (w/v) Tween 20 (pH 7.4) was used for the running buffer, and this buffer was also used to dilute the human FcγRs. 10 mmol/L glycine-HCl (pH 1.5) was used to regenerate the sensor chip. All measurements were carried out at 25° C.
Binding activity to human FcγRs can be represented by the relative binding activity to human FcγRs. Antibody was captured by Protein L, and the amount of change in a sensorgram before and after the antibody was captured was defined as X1. Next, human FcγRs were allowed to interact with the antibody, and the value obtained by subtracting binding activity of human FcγRs represented as the amount of change in a sensorgram before and after allowing the running buffer to interact with antibody captured by Protein L (ΔA2) from the value obtained by multiplying by 1500 the value obtained by dividing the binding activity of human FcγRs represented as the amount of change in a sensorgram before and after that interaction (ΔA1) by the captured amount (X) of each antibody, was divided by the captured amount of each antibody (X) followed by multiplying by 1500 to obtain the binding activity of the human FcγRs (Y) (Equation 2).

Row | BINDING AMOUNT (RU) | Binder
40 | 63.5 RU | B11
41 | 0.51 RU | B12
42 | -1.85 RU | B13
43 | -1.03 RU | B14
44 | 105 RU | B15
45 | -0.68 RU | B16
46 | -0.54 RU | B17
47 | -0.34 RU | B18
48 | -0.94 RU | B19
49 | -0.33 RU | B20
50 | -1.01 RU | B21
51 | -0.26 RU | B22
